B1: Guanyl-specific ribonuclease T1, P00651 (parent)
chain: MMYSKLLTLTTLLLPTALALPSLVERACDYTCGSNCYSSSDVSTAQAAGYQLHEDGETVGSNSYPHKYNNYEGFDFSVSSPYYEWPILSSGDVYSGGSPGADRVVFNENNQLAGVITHTGASGNNFVECT

Variants of: B1
Conditions: Aspergillus oryzae (strain ATCC 42149 / RIB 40); pH 7; 25 °C; Thermal; DSC; MOPS 30 mM; reversible: yes(1.03); structure 1RN1; whole UniProt chain shown
In the case of MMYSKLLTLTTLLLPTALALPSLVERACDYTCGSNCYSSSDSSTAQAAGYQLHEDGETVGSNSYPHKYNNYEGFDFSVSSPYYEWPILSSGDVYSGGSPGADRVVFNENNQLAGVITHTGASGNNFVECT, the “ddG of mutation (higher = less stable)” value is reported as 4.71 kcal/mol and the “heat capacity change of unfolding” value is reported as 1.29 kcal/mol/K.

Same assay, conditions: Aspergillus oryzae (strain ATCC 42149 / RIB 40); pH 7; 25 °C; Urea; CD; MOPS 30 mM; reversible: yes(1.03); structure 1RN1; whole UniProt chain shown
In the case of MMYSKLLTLTTLLLPTALALPSLVERACDYTCGSNCYSSSDSSTAQAAGYQLHEDGETVGSNSYPHKYNNYEGFDFSVSSPYYEWPILSSGDVYSGGSPGADRVVFNENNQLAGVITHTGASGNNFVECT, the “ddG of mutation (higher = less stable)” value is reported as 4.66 kcal/mol.

Same assay, conditions: Aspergillus oryzae (strain ATCC 42149 / RIB 40); pH 7; Thermal; CD; MOPS 30 mM; reversible: yes(1.03); structure 1RN1; whole UniProt chain shown
In the case of MMYSKLLTLTTLLLPTALALPSLVERACDYTCGSNCYSSSDSSTAQAAGYQLHEDGETVGSNSYPHKYNNYEGFDFSVSSPYYEWPILSSGDVYSGGSPGADRVVFNENNQLAGVITHTGASGNNFVECT, the Tm is reported as 35.6 °C and the “change of melting temperature, mutant - wild type (higher = more stable)” value (“change of melting temperature, mutant” for short) is reported as -15.6 °C.

Same assay, conditions: Aspergillus oryzae (strain ATCC 42149 / RIB 40); pH 7; Thermal; DSC; MOPS 30 mM; reversible: yes(1.03); structure 1RN1; whole UniProt chain shown
In the case of MMYSKLLTLTTLLLPTALALPSLVERACDYTCGSNCYSSSDSSTAQAAGYQLHEDGETVGSNSYPHKYNNYEGFDFSVSSPYYEWPILSSGDVYSGGSPGADRVVFNENNQLAGVITHTGASGNNFVECT, the Tm is reported as 36.9 °C and the “change of melting temperature, mutant” value is reported as -14.6 °C.

Same assay, conditions: Aspergillus oryzae (strain ATCC 42149 / RIB 40); pH 7; 25 °C; Thermal; DSC; MOPS 30 mM; reversible: yes(0.98); structure 1RN1; whole UniProt chain shown
For MMYSKLLTLTTLLLPTALALPSLVERACDYTCGSNCYSSSDASTAQAAGYQLHEDGETVGSNSYPHKYNNYEGFDFSVSSPYYEWPILSSGDVYSGGSPGADRVVFNENNQLAGVITHTGASGNNFVECT, the “ddG of mutation (higher = less stable)” value was 2.19 kcal/mol and the “heat capacity change of unfolding” value was 1.29 kcal/mol/K. In the case of MMYSKLLTLTTLLLPTALALPSLVERACDYTCGSNCYSSSDVSTAQAAGYQLHEDGETVGSNSYPHKYNNYEGFDFSVSSPYYEWPILSSGDVYSGGSPGADRTVFNENNQLAGVITHTGASGNNFVECT, the “ddG of mutation (higher = less stable)” value is reported as 3.1 kcal/mol and the “heat capacity change of unfolding” value is reported as 1.29 kcal/mol/K.

Same assay, conditions: Aspergillus oryzae (strain ATCC 42149 / RIB 40); pH 7; Thermal; CD; MOPS 30 mM; reversible: yes(0.98); structure 1RN1; whole UniProt chain shown
For MMYSKLLTLTTLLLPTALALPSLVERACDYTCGSNCYSSSDASTAQAAGYQLHEDGETVGSNSYPHKYNNYEGFDFSVSSPYYEWPILSSGDVYSGGSPGADRVVFNENNQLAGVITHTGASGNNFVECT, the Tm was 43 °C and the “change of melting temperature, mutant” value was -8.2 °C. In the case of MMYSKLLTLTTLLLPTALALPSLVERACDYTCGSNCYSSSDVSTAQAAGYQLHEDGETVGSNSYPHKYNNYEGFDFSVSSPYYEWPILSSGDVYSGGSPGADRTVFNENNQLAGVITHTGASGNNFVECT, the Tm is reported as 41.4 °C and the “change of melting temperature, mutant” value is reported as -9.8 °C.

Same assay, conditions: Aspergillus oryzae (strain ATCC 42149 / RIB 40); pH 7; Thermal; DSC; MOPS 30 mM; reversible: yes(0.98); structure 1RN1; whole UniProt chain shown
In the case of MMYSKLLTLTTLLLPTALALPSLVERACDYTCGSNCYSSSDASTAQAAGYQLHEDGETVGSNSYPHKYNNYEGFDFSVSSPYYEWPILSSGDVYSGGSPGADRVVFNENNQLAGVITHTGASGNNFVECT, the Tm is reported as 44.5 °C and the “change of melting temperature, mutant” value is reported as -7 °C. In the case of MMYSKLLTLTTLLLPTALALPSLVERACDYTCGSNCYSSSDVSTAQAAGYQLHEDGETVGSNSYPHKYNNYEGFDFSVSSPYYEWPILSSGDVYSGGSPGADRTVFNENNQLAGVITHTGASGNNFVECT, the Tm is reported as 40.2 °C and the “change of melting temperature, mutant” value is reported as -11.3 °C.

Same assay, conditions: Aspergillus oryzae (strain ATCC 42149 / RIB 40); pH 7; 25 °C; Thermal; DSC; MOPS 30 mM; reversible: yes(1.04); structure 1RN1; whole UniProt chain shown
In the case of MMYSKLLTLTTLLLPTALALPSLVERACDYTCGSNCYSSSDTSTAQAAGYQLHEDGETVGSNSYPHKYNNYEGFDFSVSSPYYEWPILSSGDVYSGGSPGADRVVFNENNQLAGVITHTGASGNNFVECT, the “ddG of mutation (higher = less stable)” value is reported as 4.1 kcal/mol and the “heat capacity change of unfolding” value is reported as 1.29 kcal/mol/K.

Same assay, conditions: Aspergillus oryzae (strain ATCC 42149 / RIB 40); pH 7; 25 °C; Urea; CD; MOPS 30 mM; reversible: yes(1.04); structure 1RN1; whole UniProt chain shown
For MMYSKLLTLTTLLLPTALALPSLVERACDYTCGSNCYSSSDTSTAQAAGYQLHEDGETVGSNSYPHKYNNYEGFDFSVSSPYYEWPILSSGDVYSGGSPGADRVVFNENNQLAGVITHTGASGNNFVECT, the “ddG of mutation (higher = less stable)” value was 3.2 kcal/mol.

Same assay, conditions: Aspergillus oryzae (strain ATCC 42149 / RIB 40); pH 7; Thermal; DSC; MOPS 30 mM; reversible: yes(1.04); structure 1RN1; whole UniProt chain shown
In the case of MMYSKLLTLTTLLLPTALALPSLVERACDYTCGSNCYSSSDTSTAQAAGYQLHEDGETVGSNSYPHKYNNYEGFDFSVSSPYYEWPILSSGDVYSGGSPGADRVVFNENNQLAGVITHTGASGNNFVECT, the Tm is reported as 42.1 °C and the “change of melting temperature, mutant” value is reported as -9.4 °C.

Same assay, conditions: Aspergillus oryzae (strain ATCC 42149 / RIB 40); pH 7; 25 °C; Thermal; DSC; MOPS 30 mM; reversible: yes(0.18); structure 1RN1; whole UniProt chain shown
With MMYSKLLTLTTLLLPTALALPSLVERACDYTCGSNCYSSSDCSTAQAAGYQLHEDGETVGSNSYPHKYNNYEGFDFSVSSPYYEWPILSSGDVYSGGSPGADRVVFNENNQLAGVITHTGASGNNFVECT the “ddG of mutation (higher = less stable)” value was 4.68 kcal/mol and the “heat capacity change of unfolding” value was 1.29 kcal/mol/K.

Same assay, conditions: Aspergillus oryzae (strain ATCC 42149 / RIB 40); pH 7; 25 °C; Urea; CD; MOPS 30 mM; reversible: yes(0.18); structure 1RN1; whole UniProt chain shown
For MMYSKLLTLTTLLLPTALALPSLVERACDYTCGSNCYSSSDCSTAQAAGYQLHEDGETVGSNSYPHKYNNYEGFDFSVSSPYYEWPILSSGDVYSGGSPGADRVVFNENNQLAGVITHTGASGNNFVECT, the “ddG of mutation (higher = less stable)” value was 5.3 kcal/mol.

Same assay, conditions: Aspergillus oryzae (strain ATCC 42149 / RIB 40); pH 7; Thermal; CD; MOPS 30 mM; reversible: yes(0.18); structure 1RN1; whole UniProt chain shown
With MMYSKLLTLTTLLLPTALALPSLVERACDYTCGSNCYSSSDCSTAQAAGYQLHEDGETVGSNSYPHKYNNYEGFDFSVSSPYYEWPILSSGDVYSGGSPGADRVVFNENNQLAGVITHTGASGNNFVECT the Tm was 41.6 °C and the “change of melting temperature, mutant” value was -9.6 °C.

Same assay, conditions: Aspergillus oryzae (strain ATCC 42149 / RIB 40); pH 7; Thermal; DSC; MOPS 30 mM; reversible: yes(0.18); structure 1RN1; whole UniProt chain shown
With MMYSKLLTLTTLLLPTALALPSLVERACDYTCGSNCYSSSDCSTAQAAGYQLHEDGETVGSNSYPHKYNNYEGFDFSVSSPYYEWPILSSGDVYSGGSPGADRVVFNENNQLAGVITHTGASGNNFVECT the Tm was 42.6 °C and the “change of melting temperature, mutant” value was -8.9 °C.

Same assay, conditions: Aspergillus oryzae (strain ATCC 42149 / RIB 40); pH 7; 25 °C; Urea; CD; MOPS 30 mM; structure 1RN1; whole UniProt chain shown
For MMYSKLLTLTTLLLPTALALPSLVERACDYTCGSNCYSSSDVSTAQAAGYQLHEDGETVGSNSYPHKYNNYEGFDFSVSSPYYEWPILSSGDVYSGGSPGADRVVFNENNQLAGCITHTGASGNNFVECT, the “ddG of mutation (higher = less stable)” value was 3.54 kcal/mol. For MMYSKLLTLTTLLLPTALALPSLVERACDYTCGSNCYSSSDVSTAQAAGYQLHEDGETVGSNSYPHKYNNYEGFDFSVSSPYYEWPILSSGDVYSGGSPGADRVVFNENNQLAGTITHTGASGNNFVECT, the “ddG of mutation (higher = less stable)” value was 3.07 kcal/mol. For MMYSKLLTLTTLLLPTALALPSLVERACDYTCGSNCYSSSDVSTAQAAGYQLHEDGETVGSNSYPHKYNNYEGFDFSVSSPYYEWPILSSGDVYSGGSPGADRVVFNENNQLAGSITHTGASGNNFVECT, the “ddG of mutation (higher = less stable)” value was 4.87 kcal/mol. With MMYSKLLTLTTLLLPTALALPSLVERACDYTCGSNCYSSSDVSTAQAAGYQLHEDGETVGSNSYPHKYNNYEGFDFSVSSPYYEWPILSSGDVYSGGSPGADRCVFNENNQLAGVITHTGASGNNFVECT the “ddG of mutation (higher = less stable)” value was 3.67 kcal/mol. In the case of MMYSKLLTLTTLLLPTALALPSLVERACDYTCGSNCYSSSDVSTAQAAGYQLHEDGETVGSNSYPHKYNNYEGFDFSVSSPYYEWPILSSGDVYSGGSPGADRAVFNENNQLAGVITHTGASGNNFVECT, the “ddG of mutation (higher = less stable)” value is reported as 4.08 kcal/mol.

Same assay, conditions: Aspergillus oryzae (strain ATCC 42149 / RIB 40); pH 7; Thermal; CD; MOPS 30 mM; structure 1RN1; whole UniProt chain shown
With MMYSKLLTLTTLLLPTALALPSLVERACDYTCGSNCYSSSDVSTAQAAGYQLHEDGETVGSNSYPHKYNNYEGFDFSVSSPYYEWPILSSGDVYSGGSPGADRVVFNENNQLAGCITHTGASGNNFVECT the Tm was 46.3 °C and the “change of melting temperature, mutant” value was -4.9 °C. In the case of MMYSKLLTLTTLLLPTALALPSLVERACDYTCGSNCYSSSDVSTAQAAGYQLHEDGETVGSNSYPHKYNNYEGFDFSVSSPYYEWPILSSGDVYSGGSPGADRVVFNENNQLAGTITHTGASGNNFVECT, the Tm is reported as 38 °C and the “change of melting temperature, mutant” value is reported as -13.2 °C. For MMYSKLLTLTTLLLPTALALPSLVERACDYTCGSNCYSSSDVSTAQAAGYQLHEDGETVGSNSYPHKYNNYEGFDFSVSSPYYEWPILSSGDVYSGGSPGADRVVFNENNQLAGSITHTGASGNNFVECT, the Tm was 29.6 °C and the “change of melting temperature, mutant” value was -21.6 °C. With MMYSKLLTLTTLLLPTALALPSLVERACDYTCGSNCYSSSDVSTAQAAGYQLHEDGETVGSNSYPHKYNNYEGFDFSVSSPYYEWPILSSGDVYSGGSPGADRSVFNENNQLAGVITHTGASGNNFVECT the Tm was 34.6 °C and the “change of melting temperature, mutant” value was -16.6 °C. For MMYSKLLTLTTLLLPTALALPSLVERACDYTCGSNCYSSSDVSTAQAAGYQLHEDGETVGSNSYPHKYNNYEGFDFSVSSPYYEWPILSSGDVYSGGSPGADRAVFNENNQLAGVITHTGASGNNFVECT, the Tm was 43.3 °C and the “change of melting temperature, mutant” value was -7.9 °C.

Same assay, conditions: Aspergillus oryzae (strain ATCC 42149 / RIB 40); pH 7; 25 °C; Urea; CD; MOPS 30 mM; reversible: yes(0.98); structure 1RN1; whole UniProt chain shown
With MMYSKLLTLTTLLLPTALALPSLVERACDYTCGSNCYSSSDVSTAQAAGYQLHEDGETVGSNSYPHKYNNYEGFDFSVSSPYYEWPILSSGDVYSGGSPGADRTVFNENNQLAGVITHTGASGNNFVECT the “ddG of mutation (higher = less stable)” value was 4.08 kcal/mol.
